# In US11612662B2, “Multi-arm polymeric prodrug conjugates of pemetrexed-based compounds” (priority 2010, dated 2023):
# Legend:
# [1] = in vivo; conditions: low folate diet; for Days of Deaths (s = surviving at study end): five mice listed singly; for tolerability of the dosage level: tolerated if treatment-related weight loss <20%; for Max. Mean Body Weight change during Rx (%): intravenously once each day for ten days; for % Rx Related Deaths / Day of Max. Mean Body Weight Loss (body weight nadir): once each day for ten days
# Protocol: The purpose of this study was to determine the maximum tolerated dose for pemetrexed (PMX), Compound 20a (from Example 1), Compound 20b (from Example 1), Compound 20c (from Example 1), and Compound 20d (from Example 1) in female SCID mice fed a low folate diet. All compounds were administered intravenously, once each day, for ten consecutive days.
# Calculations were made to provide “dose equivalents” between PMX, Compound 20a, Compound 20b, Compound 20c and Compound 20d, which “dose equivalents” along with the “actual dose” administered are provided in Table 2. All dosagese in this example are expressed in terms of “dose equivalents” and adjustments were made for excipients, salts and hydration state.
# Female SCID mice (HsdIcr:Ha (ICR)-Prkdc-scid) were obtained from Harlan. They were seven weeks old on Day 1 of the experiment. The mice in Groups 1 and 2 were fed irradiated Rodent Diet 5053 (LabDiet™). The mice in Groups 3 through 19 were fed irradiated Folic Acid Deficient Purina TestDiet supplemented with 1% succinylsufathiazol from 14 days prior to dosing until 14 days after dosing was completed, at which time the study was terminated and the mice were then euthanized. All groups received drinking water ad libitum. Mice were housed in static cages in clean rooms that provide H.E.P.A filtered air into the environment at 100 complete air changes per hour. All treatments, body weight determinations, and tumor measurements were carried out in the environment. The environment was controlled to a temperature range of 70°±2° F. and a humidity range of 30-70%. […] Mice found in obvious distress or in a moribund condition were euthanized. The study was carried out in an AAALAC accredited facility.
# Treatments began on Day 1. […] Mice in Groups 3 through 19 were fed irradiated Folic Acid Deficient Purina TestDiet with 1% Succinylsufathiazol for 14 days prior to dosing as well as throughout the entire experiment. All mice were dosed according to individual body weight on the day of treatment (0.2 ml/20 g).
# Mice were weighed on each day of treatment and at least three times weekly thereafter. Individual body weights were recorded three times weekly. […] In this report, a dosage level is described as tolerated if treatment-related weight loss (during and two weeks after treatment) is <20%. Upon death or euthanasia, all mice were necropsied to provide a general assessment of potential cause of death and perhaps target organs for toxicity.
# [2] = Single dose maximum tolerated dose study; type: in vivo, mice; conditions: single intravenous dose
# Protocol: Because of too much efficacy of daily dosing for ten days in a pilot xenograft study (likely due to the effects of repeated dosing), a single dose maximum tolerated dose study was conducted using a method similar to that provided in Example 3 in order to have a better dosing schedule for a comparative xenograft study.
# [3] = tested on: xenograft; test: In vivo xenograft study; design: species or system female athymic nu/nu mice; conditions: as of day 26; intravenously, at 80% and at 50% of the single dose maximum tolerated dose
# Protocol: Briefly, for run of the experiment, a previously untreated group of 8-12 week old mice was intravenously administered a test article prepared in saline and diluted to appropriate concentrations to allow administration volumes of a maximum of 20 mL/kg. Each compound of interest was tested twice: once at 80% of the maximum tolerated dose and once at 50% of the maximum tolerated (maximum tolerated doses calculated on the single dose maximum tolerated dose study).
# Mice were observed daily for clinical signs and body weights were recorded daily (except on weekend days) then biweekly until the end of study. Dosing was terminated for any group in which mean weight loss exceeded 20% or >10% of animals died. Moribund animals were euthanized.
# [4] = 3.75 mg/kg/inj dose equivalents
substance,measurement,setting,value
4-arm-PEG30k-γ-amide-Pemetrexed Conjugate [Compound 20c],maximum treatment-related body weight loss,[1]; 1 mg/kg,4.8%
same,time to recover lost body weight,[1]; 1 mg/kg,5.5 days
same,Days of Deaths (s = surviving at study end),[1]; 1 mg/kg/inj dose equivalents,"s, s, s, s, s"
same,tolerability of the dosage level,[1]; 1 mg/kg,tolerated
same,maximum treatment-related body weight loss,[1]; 3.75 mg/kg,1.4%
same,time to recover lost body weight,[1]; 3.75 mg/kg,2.2 days
same,Days of Deaths (s = surviving at study end),[1]; [4],"s, s, s, s, s"
same,tolerability of the dosage level,[1]; 3.75 mg/kg,tolerated
same,maximum treatment-related body weight loss,[1]; 15 mg/kg,18.8%
same,time to recover lost body weight,[1]; 15 mg/kg,not recovered prior to study termination
same,tolerability of the dosage level,[1]; 15 mg/kg,toxic
same,common clinical signs,[1]; dosage levels found tolerated,Rough pelage
same,necropsy findings,[1]; dosage levels found tolerated,no significant findings
same,necropsy findings,[1]; dosage levels found toxic,Necrotic intestines
same,Max. Mean Body Weight change during Rx (%),[1]; 1 mg/kg/inj dose equivalents,−4.8%
same,Max. Mean Body Weight change during Rx (%),[1]; [4],−1.4%
same,Max. Mean Body Weight change during Rx (%),[1]; 15 mg/kg/inj dose equivalents,−22.0%
same,% Rx Related Deaths,[1]; 1 mg/kg/inj dose equivalents,0%
same,Day of Max. Mean Body Weight Loss (body weight nadir),[1]; 1 mg/kg/inj dose equivalents,10
same,% Rx Related Deaths,[1]; [4],0%
same,Day of Max. Mean Body Weight Loss (body weight nadir),[1]; [4],5
same,% Rx Related Deaths,[1]; 15 mg/kg/inj dose equivalents,20%
same,Day of Max. Mean Body Weight Loss (body weight nadir),"[1]; 15 mg/kg/inj dose equivalents, 15 mg/kg",19
same,Single dose MTD,[2]; dose equivalents,<40
same,BWL (body weight loss),[2]; tested dose (equiv) 40,−19.6%
same,day (of body weight loss),[2]; tested dose (equiv) 40,9
same,mean day of death,[2]; tested dose (equiv) 40,12
same,treatment-related deaths,[2]; tested dose (equiv) 40,5
same,BWL (body weight loss),[2]; tested dose (equiv) 70,−25.0%
same,day (of body weight loss),[2]; tested dose (equiv) 70,9
same,mean day of death,[2]; tested dose (equiv) 70,10.5
same,treatment-related deaths,[2]; tested dose (equiv) 70,2
same,BWL (body weight loss),[2]; tested dose (equiv) 95,−27.1%
same,day (of body weight loss),[2]; tested dose (equiv) 95,7
same,mean day of death,[2]; tested dose (equiv) 95,9
same,treatment-related deaths,[2]; tested dose (equiv) 95,3
same,BWL (body weight loss),[2]; tested dose (equiv) 125,−25.3%
same,day (of body weight loss),[2]; tested dose (equiv) 125,9
same,mean day of death,[2]; tested dose (equiv) 125,10.5
same,treatment-related deaths,[2]; tested dose (equiv) 125,2
same,tumor volume compared with saline control,[3],significantly less tumor volume than saline control
same,tumor volume compared with the other articles tested,[3],lowest tumor volumes of all articles tested
